Values belong to the binder of their own block, whether it stands above or below them. *1 amine or outer side, *2 acyl side, *3 side chain or, on linkers, in order; H or OH if unused. Bridges are numbered along the chain shown (N, C = ends). Where no end group is shown, it is not given here. [ ]: non-standard residue; d: D form. TATA = O=C(CC[*:1])N1CN(C(=O)CC[*:2])CN(C(=O)CC[*:3])C1; fluorescein = fluorescein (Fl) label on lysine; 1Nal = N[C@@H](Cc1cccc2ccccc12)C(=O)O; PABC = O=C(OCc1ccc(N[*:1])cc1)[*:2]; Glutaryl = O=C(CCCC(=O)[*:2])[*:1]; Hyp = O=C(O)[C@@H]1C[C@@H](O)CN1; hArg = N=C(N)NCCCC[C@H](N)C(=O)O; Cit = NC(=O)NCCC[C@H](N)C(=O)O; βAla = NCCC(=O)O; Sar = CNCC(=O)O
Experiments:
[1] = biological target: T1, human Nectin-4 (protein used in the fluorescence polarisation direct and competition binding assays) (human, UniProt Q96NY8 32-349); assay: fluorescence polarisation competition; competitor: fluorescent tracer SEQ ID NO: 2; 6 experiments
T1 construct: It may be the Gly32-Ser349 FLAG construct described for SPR
T1 sequence (looked up): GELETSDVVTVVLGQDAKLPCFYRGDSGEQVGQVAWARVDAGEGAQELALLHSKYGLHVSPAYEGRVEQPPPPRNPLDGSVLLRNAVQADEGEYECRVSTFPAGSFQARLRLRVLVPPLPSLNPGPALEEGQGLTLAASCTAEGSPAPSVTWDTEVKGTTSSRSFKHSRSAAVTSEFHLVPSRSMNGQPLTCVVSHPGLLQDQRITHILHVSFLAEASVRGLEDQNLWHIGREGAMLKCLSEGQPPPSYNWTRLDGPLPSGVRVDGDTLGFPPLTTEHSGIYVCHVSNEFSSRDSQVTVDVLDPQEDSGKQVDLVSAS
Protocol: (§1) Affinity of the peptides of the invention for human Nectin-4 (Ki) was determined using a fluorescence polarisation assay, in accordance with the methods disclosed in WO 2016/067035. Peptides of the invention with a fluorescent tag (either fluorescein, SIGMA or Alexa Fluor488™, Fisher Scientific) were diluted to 2.5 nM in PBS with 0.01% tween 20 or 50 mM HEPES with 100 mM NaCl and 0.01% tween pH 7.4 (both referred to as assay buffer). […] Measurements were conducted on a BMG PHERAstar FS equipped with an “FP 485 520 520” optic module which excites at 485 nm and detects parallel and perpendicular emission at 520 nm. The PHERAstar FS was set at 25° C. with 200 flashes per well and a positioning delay of 0.1 second, with each well measured at 5 to 10 minute intervals for 60 minutes. […] Data was analysed using Systat Sigmaplot version 12.0. mP values were fit to a user defined quadratic equation to generate a Kd value: f=ymin+ (ymax−ymin)/Lig*((x+Lig+Kd)/2-sqrt((((x+Lig+Kd)/2)\hat{ }2)−(Lig*x))).
(§2) Peptides were diluted to an appropriate concentration in assay buffer as described in the direct binding assay with a maximum of 5% DMSO, then serially diluted 1 in 2. […] Measurements were conducted as for the direct binding assay, however the gain was determined prior to the first measurement. […]

[2] = biological target: T2, Human Nectin-4 (residues Gly32-Ser349; NCBI RefSeq: NP_112178.2) with C-terminal FLAG tag, biotinylated (human, UniProt Q96NY8 32-349, randomly biotinylated with EZ-Link Sulfo-NHS-LC-LC-Biotin); assay: Biacore SPR, biotinylated Nectin-4 captured on streptavidin chip, peptide as analyte; n = 4
T2 construct: range 32-349; also called human Necin-4 protein; biotinylated Nectin-4; not shown: C-terminal FLAG tag
T2 sequence (looked up): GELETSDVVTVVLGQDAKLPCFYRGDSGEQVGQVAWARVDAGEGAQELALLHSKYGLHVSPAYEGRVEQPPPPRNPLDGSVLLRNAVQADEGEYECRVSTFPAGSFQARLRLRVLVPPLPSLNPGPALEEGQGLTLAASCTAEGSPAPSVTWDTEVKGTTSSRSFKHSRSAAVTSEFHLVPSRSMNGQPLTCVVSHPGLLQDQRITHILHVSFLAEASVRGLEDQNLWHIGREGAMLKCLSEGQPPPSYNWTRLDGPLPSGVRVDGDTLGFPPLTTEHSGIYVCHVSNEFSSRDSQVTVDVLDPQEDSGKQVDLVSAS

[3] = biological target: T2, Human Nectin-4 (residues Gly32-Ser349; …); assay: Biacore SPR, biotinylated Nectin-4 captured on streptavidin chip, peptide as analyte; n = 1
[4] = biological target: T3, Nectin-4 on MDA-MB-468 cells (UniProt Q96NY8 32-510, limits assumed); assay: historical Kd as printed in Table 44; assay not described
T3 construct: whole, on cells; the cell line is a human breast cancer line; also called PVRL-4
T3 sequence (looked up): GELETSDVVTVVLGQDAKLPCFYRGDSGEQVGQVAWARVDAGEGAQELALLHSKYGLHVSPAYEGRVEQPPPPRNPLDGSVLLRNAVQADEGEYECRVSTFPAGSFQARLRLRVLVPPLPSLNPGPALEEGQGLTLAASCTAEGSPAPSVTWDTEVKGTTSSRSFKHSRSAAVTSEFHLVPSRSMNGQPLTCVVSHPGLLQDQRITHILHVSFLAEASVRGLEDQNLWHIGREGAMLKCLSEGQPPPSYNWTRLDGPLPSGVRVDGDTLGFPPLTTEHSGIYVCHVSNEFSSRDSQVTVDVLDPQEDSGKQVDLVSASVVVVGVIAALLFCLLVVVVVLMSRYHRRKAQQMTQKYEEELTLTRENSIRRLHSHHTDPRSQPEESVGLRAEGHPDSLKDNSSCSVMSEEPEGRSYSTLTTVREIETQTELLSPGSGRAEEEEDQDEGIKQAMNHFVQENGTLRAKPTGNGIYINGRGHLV

[5] = biological target: T3, Nectin-4 on MDA-MB-468 cells; assay: HCS cell-binding assay on MDA-MB-468 cells at 4°C: cells incubated with the test agent, washed, detected with a fluorescent antibody to MMAE; readout membrane mean intensity CH2 (RFU) [A]
Protocol: (§3) HCS assay was used in Nectin-4 BDC binding study. Cells were incubated with test agent and then washed. Detection was by a fluorescent antibody to MMAE.

[6] = biological target: T3, Nectin-4 on MDA-MB-468 cells; assay: HCS cell binding assay on MDA-MB-468 cells, detection with fluorescent anti-MMAE antibody
Protocol: as §3

[7] = biological target: T2, Human Nectin-4 (residues Gly32-Ser349; …); assay: Biacore SPR, biotinylated Nectin-4 captured on streptavidin chip, conjugate as analyte
[8] = biological target: T1, human Nectin-4 (protein used in the …); assay: fluorescence polarisation direct binding assay
Protocol: as §1

[9] = biological target: T1, human Nectin-4 (protein used in the …); assay: fluorescence polarisation competition; competitor: fluorescent tracer SEQ ID NO: 2; 2 experiments
Protocol: as §1, §2

B2: BCY8116: (SEQ ID NO: 1), cyclised with TATA (peptide)
peptide: CPADCMRDWSTPPWC
modifications: core as printed Ci-P1-[1Nal]2-[dD]3-Cii-M4-[HArg]5-D6-W7-S8-T9-P10-[HyP]11-W12-Ciii (1Nal = 1-naphthylalanine, dD = D-Asp, HArg = homoarginine, HyP = hydroxyproline); Ci, Cii and Ciii covalently bound to the TATA scaffold
notes: Bicyclic peptide
Kd [3]: 0.372 nM

Binder: ACPFGCHTDWSWPIWCA[Sar][Sar][Sar][Sar][Sar][Sar]K(fluorescein) (linker 2-6-16 via TATA, also called fluorescent peptide; tracer) [ACPFGCHTDWSWPIWCA-Sar6-K(FI) (SEQ ID NO: 2)]
Kd [8]: 5 nM

The remaining lines, values ahead:

Ki [1]: 2.7 nM | Kd [2]: 1.07 nM
B1: BCY8126: Ac-(SEQ ID NO: 1), cyclised with TATA (peptide)
peptide: CPADCMRDWSTPPWC
modifications: N-terminal acetyl; core as printed Ci-P1-[1Nal]2-[dD]3-Cii-M4-[HArg]5-D6-W7-S8-T9-P10-[HyP]11-W12-Ciii (1Nal = 1-naphthylalanine, dD = D-Asp, HArg = homoarginine, HyP = hydroxyproline); Ci, Cii and Ciii covalently bound to the TATA scaffold
notes: Bicyclic peptide

Kd [4]: 5.18 nM | EC50 (read off the curve) [5]: ~3 nM | Kd [6]: 3.52 nM | Kd [7]: 5.12 nM
B3: BCY8245: MMAE-PABC-Cit-Val-Glutaryl-BCY8234 (BCY8234 = [B-Ala][Sar10]-(SEQ ID NO: 1), cyclised with TATA) (peptide)
peptide: {MMAE-PABC-Cit-Val-Glutaryl}-[βAla][Sar][Sar][Sar][Sar][Sar][Sar][Sar][Sar][Sar][Sar]CP[1Nal][dD]CM[hArg]DWSTP[Hyp]WC
modifications: linker 12-16-26 via TATA
notes: Bicyclic peptide drug conjugate (BDC) with an MMAE to drug ratio of 1; also called BT8009

Ki [9]: 3 nM | Kd [3]: 0.89 nM
Binder: Ac-[βAla][Sar][Sar][Sar][Sar][Sar]CP[1Nal][dD]CM[hArg]DWSTP[Hyp]WC (linker 7-11-21 via TATA, Bicyclic peptide) [BCY8122: Ac-[B-Ala][Sar5]-(SEQ ID NO: 1), cyclised with TATA]

From patent US20240400616A1 (Bicycle, published 2024)
